Data taken from US20020106675.

Molecular target: F7 protein

B1: Pfu DNA polymerase (α-type DNA polymerase) (protein)
chain: MILDVDYITEEGKPVIRLFKKENGKFKIEHDRTFRPYIYALLRDDSKIEEVKKITGERHGKIVRIVDVEKVEKKFLGKPITVWKLYLEHPQDVPTIREKVREHPAVVDIFEYDIPFAKRYLIDKGLIPMEGEEELKILAFDIETLYHEGEEFGKGPIIMISYADENEAKVITWKNIDLPYVEVVSSEREMIKRFLRIIREKDPDIIVTYNGDSFDFPYLAKRAEKLGIKLTIGRDGSEPKMQRIGDMTAVEVKGRIHFDLYHVITRTINLPTYTLEAVYEAIFGKPKEKVYADEIAKAWESGENLERVAKYSMEDAKATYELGKEFLPMEIQLSRLVGQPLWDVSRSSTGNLVEWFLLRKAYERNEVAPNKPSEEEYQRRLRESYTGGFVKEPEKGLWENIVYLDFRALYPSIIITHNVSPDTLNLEGCKNYDIAPQVGHKFCKDIPGFIPSLLGHLLEERQKIKTKMKETQDPIEKILLDYRQKAIKLLANSFYGYYGYAKARWYCKECAESVTAWGRKYIELVWKELEEKFGFKVLYIDTDGLYATIPGGESEEIKKKALEFVKYINSKLPGLLELEYEGFYKRGFFVTKKRYAVIDEEGKVITRGLEIVRRDWSEIAKETQARVLETILKHGDVEEAVRIVKEVIQKLANYEIPPEKLAIYEQITRPLHEYKAIGPHVAVAKKLAAKGVKIKPGMVIGYIVLRGDGPISNRAILAEEYDPKKHKYDAEYYIENQVLPAVLRILEGFGYRKEDLRYQKTRQVGLTSWLNIKKS
  ratio of the primer extension activity to the incorporation activity, about 320 kilodalton gel filtration fraction (Pfu DNA polymerase-F7 complex); about 76 kilodalton fraction (Pfu DNA polymerase alo): the ratio of 0.65 was obtained for the about 320 kilodalton fraction
